Results as given in EP2270053A1 (U3 Pharma GmbH, dated 2011).

T1: human receptor tyrosine kinase AXL (human, UniProt P30530 26-894)
T1 construct: also called hAXL; human AXL on NIH3T3-AXL cl.7, Ratl-AXL cl.2, Hs578T, NCI-H292 and CaSki cells
T1 sequence: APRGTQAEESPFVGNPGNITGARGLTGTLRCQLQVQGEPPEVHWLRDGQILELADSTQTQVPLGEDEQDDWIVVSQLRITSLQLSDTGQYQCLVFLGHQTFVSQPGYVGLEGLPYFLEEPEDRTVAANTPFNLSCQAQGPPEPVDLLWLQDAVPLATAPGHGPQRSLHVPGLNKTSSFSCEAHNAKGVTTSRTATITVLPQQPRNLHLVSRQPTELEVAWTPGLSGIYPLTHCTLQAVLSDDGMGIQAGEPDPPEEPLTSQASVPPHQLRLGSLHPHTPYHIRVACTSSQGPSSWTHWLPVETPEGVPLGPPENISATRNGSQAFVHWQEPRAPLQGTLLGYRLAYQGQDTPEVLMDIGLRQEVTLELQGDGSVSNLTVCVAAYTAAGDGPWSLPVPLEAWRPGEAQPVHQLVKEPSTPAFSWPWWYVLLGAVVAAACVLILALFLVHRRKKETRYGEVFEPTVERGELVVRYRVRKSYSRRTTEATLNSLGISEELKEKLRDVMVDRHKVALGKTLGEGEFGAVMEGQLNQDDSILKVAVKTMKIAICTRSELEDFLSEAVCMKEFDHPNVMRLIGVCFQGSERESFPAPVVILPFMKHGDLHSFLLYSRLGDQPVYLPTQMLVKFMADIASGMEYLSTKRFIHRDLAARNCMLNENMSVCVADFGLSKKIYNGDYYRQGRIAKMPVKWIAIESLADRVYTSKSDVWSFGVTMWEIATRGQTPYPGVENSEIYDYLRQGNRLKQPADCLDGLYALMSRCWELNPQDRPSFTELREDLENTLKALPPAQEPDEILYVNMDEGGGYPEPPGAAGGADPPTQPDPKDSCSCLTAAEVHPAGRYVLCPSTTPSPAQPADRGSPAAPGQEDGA


Molecular target: T1, human receptor tyrosine kinase AXL
Test: FACS Scatchard, apparent KD (KDapp) on NIH3T3 cells overexpressing human AXL

| Binder | Kd [pM] |
| --- | --- |
| rat anti-human AXL monoclonal antibody #11B7 (antibody, rat IgG1, V domains shown, also called I11B7; rat anti-Axl antibody 11B7) VH: EVQLQESGPGLVKPSQSLSLTCSVTGYSITSNYWGWIRKFPGDKMEWMGYITYSGSTSYNPSLKSRISITRDTSKNQFFLQLNSVTSEDTATYYCAITTFYYWGQGVMVTVSS VL: DIQMTQAPSSLPASLGDRVTITCRASQDIGNYLRWFQQKPGKSPRLMISGATNLAAGVPSRFSGSRSGSDYSLTISSLESEDMADYYCLQSKESPWTFGGGTKLELKR | 380 |
| chimeric anti-AXL antibody ch11B7-IgG1 (antibody, V domains shown, Rat 11B7 variable domains on human IgG1 / human kappa; also called chm11B7; chimeric anti-AXL mAb #11B7) VH: EVQLQESGPGLVKPSQSLSLTCSVTGYSITSNYWGWIRKFPGDKMEWMGYITYSGSTSYNPSLKSRISITRDTSKNQFFLQLNSVTSEDTATYYCAITTFYYWGQGVMVTVSS VL: DIQMTQAPSSLPASLGDRVTITCRASQDIGNYLRWFQQKPGKSPRLMISGATNLAAGVPSRFSGSRSGSDYSLTISSLESEDMADYYCLQSKESPWTFGGGTKLELKR | 600 |
| rat anti-human AXL monoclonal antibody #11D5 (antibody, rat IgG2a, V domains shown, also called III11D5) VH: EVQLQESGPGLVKPSQSLSLTCSVTGYSITSNYWGWIRKFPGNKMEWIGHITNSGNTTYNPSLKSRISISRDTSRNQFFLQLNSVTTEDTATYYCAKGAFDYWGQGVMVTVSS VL: DIQMTQSPSSMSTSLGDRVTITCRASQDIGNYLSWFQQKVGKSPRRMIYGAIKLAVGVPSRFSGSRSGSDYSLTISSLESEDMAIYYCLQYIQFPLTFGSGTKLELKR | 810 |
| chimeric anti-AXL antibody ch11D5-IgG1 (antibody, V domains shown, also called chm11D5; human chimeric antibody (of #11D5)) VH: EVQLQESGPGLVKPSQSLSLTCSVTGYSITSNYWGWIRKFPGNKMEWIGHITNSGNTTYNPSLKSRISISRDTSRNQFFLQLNSVTTEDTATYYCAKGAFDYWGQGVMVTVSS VL: DIQMTQSPSSMSTSLGDRVTITCRASQDIGNYLSWFQQKVGKSPRRMIYGAIKLAVGVPSRFSGSRSGSDYSLTISSLESEDMAIYYCLQYIQFPLTFGSGTKLELKR | 400 |
